{"source": "patent US20210324359A1", "about": "“USE OF GRAM-NEGATIVE LYSIN-ANTIMICROBIAL PEPTIDE (AMP) POLYPEPTIDE CONSTRUCTS IN TREATING ENDOCARDITIS” (priority 2020, published 2021)", "molecules": {"B1": {"name": "GN218: lysin-AMP construct: IGEM linker and RI12 antimicrobial peptide C-terminal to GN37 lysin (SEQ ID NO: 10) (protein)", "chain": "MTYTLSKRSLDNLKGVHPDLVAVVHRAIQLTPVDFAVIEGLRSVSRQKELVAAGASKTMNSRHLTGHAVDLAAYVNGIRWDWPLYDAIAVAVKAAAKELGVAIVWGGDWTTFKDGPHFELDRSKYGGGSGGGGSGGGSRLKKIGKVLKWI"}, "B2": {"name": "GN81: dispersin B, an enzyme that degrades biofilm (SEQ ID NO: 226); control (protein, listed as Actinobacillus pleuropneumoniae)", "chain": "MDLPKKESGLTLDIARRFYTVDTIKQFIDTIHQAGGTFLHLHFSDHENYALESSYLEQREENATEKNGTYFNPKTNKPFLTYKQLNEIIYYAKERNIEIVPEVDSPNHMTAIFDLLTLKHGKEYVKGLKSPYIAEEIDINNPEAVEVIKTLIGEVIYIFGHSSRHFHIGGDEFSYAVENNHEFIRYVNTLNDFINSKGLITRVWNDGLIKNNLSELNKNIEITYWSYDGDAQAKEDIQYRREIRADLPELLANGFKVLNYNSYYLYFVPKSGSNIHNDGKYAAEDVLNNWTLGKWDGKNSSNHVQNTQNIIGSSLSIWGERSSALNEQTIQQASKNLLKAVIQKTNDPKSH"}, "B3": {"name": "GN223: lysin-AMP construct: RPP moiety, IGEM linker and amurin peptide Gkh2 C-terminal to GN37 lysin (SEQ ID NO: 12) (protein)", "chain": "MTYTLSKRSLDNLKGVHPDLVAVVHRAIQLTPVDFAVIEGLRSVSRQKELVAAGASKTMNSRHLTGHAVDLAAYVNGIRWDWPLYDAIAVAVKAAAKELGVAIVWGGDWTTFKDGPHFELDRSKYRPPGGGSGGGGSGGGSSKKASRKSFTKGAVKVHKKNVPTRVPMRGGIRL"}, "B4": {"name": "GN239: lysin-AMP construct: IGEM linker and RI18 peptide C-terminal to GN37 lysin (SEQ ID NO: 14) (protein)", "chain": "MTYTLSKRSLDNLKGVHPDLVAVVHRAIQLTPVDFAVIEGLRSVSRQKELVAAGASKTMNSRHLTGHAVDLAAYVNGIRWDWPLYDAIAVAVKAAAKELGVAIVWGGDWTTFKDGPHFELDRSKYGGGSGGGGSGGGSRKKTRKRLKKIGKVLKWI"}, "B5": {"name": "GN178: lysin-AMP construct: Esculentin fragment and IGEM linker N-terminal to GN146 lysin (SEQ ID NO: 6) (protein)", "chain": "MPPIFSKLAGKKIKNLLISGLKGGSGSGSGSGSPRTSQRGIDLIKSFEGLRLSAYQDSVGVWTIGYGTTRGVTRYMTITVEQAERMLSNDIQRFEPELDRLAKVPLNQNQWDALMSFVYNLGAANLASSTLLDLLNKGDYQGAADQFPHWVNAGGKRLDGLVKRRAAERALFLEPLS"}, "B6": {"name": "GN328: lysin obtained from Pseudomonas protegens (SEQ ID NO: 220) (protein, listed as Pseudomonas protegens)", "chain": "MNTLRHGDRSQAVRSLQKNLNSHGAILVVDGDYGDATEAAVRAYQLKAGLVVDGIAGEKTQTSLVGGDCALLLKNADLVSAAQRLDLPLASVYAVNEVESNGKGFFANGKPAILFERHIMYRQLKTPRYPGDDPAELKRHADELAAQYPAIINPNPGGYAGGPAEHQRLATARLIDDTAALESASWGAFQIMGFHWKRLGYASVQDFVTAMSASEPRQFEAFVRFIETDPALHKALKARKWSDFARQYNGPNYQRNLYDTKLQRAYERHSACSCGQEVPA"}, "B7": {"name": "GN243: lysin-AMP construct: PP moiety, IGEM linker and TI15 peptide C-terminal to GN37 lysin (SEQ ID NO: 16) (protein)", "chain": "MTYTLSKRSLDNLKGVHPDLVAVVHRAIQLTPVDFAVIEGLRSVSRQKELVAAGASKTMNSRHLTGHAVDLAAYVNGIRWDWPLYDAIAVAVKAAAKELGVAIVWGGDWTTFKDGPHFELDRSKYRKKTRKRLKKIGKVLKWIPPGGGSGGGGSGGGSTRKRLKKIGKVLKWI"}, "B8": {"name": "GN14: lysin obtained from Pseudomonas phage Lull (SEQ ID NO: 124) (protein)", "chain": "NNELPWVAEARKYIGLREDTSKTSHNPKLLAMLDRMGEFSNESRAWWHDDETPWCGLFVGYCLGVAGRYVVREWYRARAWEAPQLTKLDRPAYGALVTFTRSGGGHVGFIVGKDARGNLMVLGGNQSNAVSIAPFAVSRVTGYFWPSFWRNKTAVKSVPFEERYSLPLLKSNGELSTNEA"}, "B9": {"name": "GN65: Lysin GN65, used as control (protein)", "chain": "MAILKIGSKGLEVKNLQTSLNKIGFNLVADGIFGKATDNAVRAVQAGAGLVVDGIAGPKTMYAIRNAGESHQDHLTEADLIDAARELSVDLASIKAVNQVESRGTGFTKSGKIKTLFERHIMYKKLNAKFGQAKANALAQLYPTLVNAKAGGYTGGDAELERLHGAIAIDKDCAYESASYGLFQIMGFNCVICGYDNAEEMFNDFLTGERAQLMAFVKFIKADANLWKALKDKNWAEFARRYNGPAYAQNQYDTKLAAAYKSFS", "modifications": "(1)..(264) GN316 lysin"}}, "type_in_all_cases": "cell-based, Pseudomonas aeruginosa", "key": {"P. aeruginosa": {"test_system": "P. aeruginosa", "experiment": "MIC, modified CLSI broth microdilution in CAA medium without or with […] human serum (Table 4); as to CAA/HuS MIC: CAA supplemented with 2.5% human serum", "details": "for CAA MIC: CAA medium, no human serum; for CAA/HuS MIC: CAA supplemented with […] human serum; for effect of the structural modification on activity (as assessed by MIC) versus the parent lysin: CAA with and without human serum, parent GN316 or GN37", "source_text": "2015. […] Clinical and Laboratory Standards Institute, Wayne, Pa."}, "[1]": {"test_system": "carbepenam-resistant clinical isolate WC-453", "experiment": "MIC in CAA without or with 25% human serum (Table 5)", "parameters": "CAA MIC: unit not given here", "details": "for CAA/HuS MIC: CAA supplemented with 25% human serum", "method": "MIC values were determined using a modification of the standard broth microdilution reference method defined by the Clinical and Laboratory Standards Institute (CLSI), CLSI. […] Methods for Dilution Antimicrobial Susceptibility Tests for Bacteria That Grow Aerobically; Approved Standard-10th Edition. Clinical and Laboratory Standards Institute, Wayne, Pa."}, "[2]": {"test_system": "P. aeruginosa strain WC-453", "experiment": "Time-kill assay in HEPES or CAA with 25% human serum (Tables 7, 8)", "details": "for HEPES (Log10 CFU/mL), 1 hr / HEPES (Log10 CFU/mL), 3 hr: 25 mM HEPES pH 7.4; for HEPES (Log10 CFU/mL), 1 hr / HEPES (Log10 CFU/mL), 3 hr / CAA/HuS (Log10 CFU/mL), 1 hr / CAA/HuS (Log10 CFU/mL), 3 hr: lysin 10 μg/ml, WC-453; for CAA/HuS (Log10 CFU/mL), 1 hr / CAA/HuS (Log10 CFU/mL), 3 hr: CAA + 25% human serum", "method": "Exponential phase bacteria were then pelleted and resuspended in 1/5 culture volume of 25 mM HEPES, pH 7.4 before a final adjustment to an optical density corresponding to a McFarland value of 0.5. […] All treatments were incubated at 37° C. with aeration. At time points before the addition of lysin (or buffer control) and at 1 hour and 3 hours intervals thereafter, culture samples were removed for quantitative plating on CAA agar plates."}}}
{"molecule": "B1", "values": [{"measurement": "CAA MIC", "setting": "P. aeruginosa", "value": 8000, "unit": "µg/mL"}, {"measurement": "CAA/HuS MIC", "setting": "P. aeruginosa", "value": 1000, "unit": "µg/mL"}, {"measurement": "effect of the structural modification on activity (as assessed by MIC) versus the parent lysin", "setting": "P. aeruginosa", "value": "very strong activity in the presence of human serum"}, {"measurement": "activity in CAA supplemented with human serum (25%)", "setting": "[1]", "value": "active"}, {"measurement": "CAA MIC", "setting": "[1]", "value": 8}, {"measurement": "CAA/HuS MIC", "setting": "[1]", "value": 1}]}
{"molecule": "B2", "values": [{"measurement": "HEPES (Log10 CFU/mL), 1 hr", "setting": "[2]", "value": 7.4, "unit": "Log10 CFU/mL"}, {"measurement": "HEPES (Log10 CFU/mL), 3 hr", "setting": "[2]", "value": 6.5, "unit": "Log10 CFU/mL"}, {"measurement": "CAA/HuS (Log10 CFU/mL), 1 hr", "setting": "[2]", "value": 6.7, "unit": "Log10 CFU/mL"}, {"measurement": "CAA/HuS (Log10 CFU/mL), 3 hr", "setting": "[2]", "value": 7.0, "unit": "Log10 CFU/mL"}]}
{"molecule": "B3", "values": [{"measurement": "CAA MIC", "setting": "P. aeruginosa", "value": 32000, "unit": "µg/mL"}, {"measurement": "CAA/HuS MIC", "setting": "P. aeruginosa", "value": 2000, "unit": "µg/mL"}, {"measurement": "effect of the structural modification on activity (as assessed by MIC) versus the parent lysin", "setting": "P. aeruginosa", "value": "very strong activity in the presence of human serum"}]}
{"molecule": "B4", "values": [{"measurement": "CAA MIC", "setting": "P. aeruginosa", "value": 4000, "unit": "µg/mL"}, {"measurement": "CAA/HuS MIC", "setting": "P. aeruginosa", "value": 250, "unit": "µg/mL"}, {"measurement": "effect of the structural modification on activity (as assessed by MIC) versus the parent lysin", "setting": "P. aeruginosa", "value": "very strong activity in the presence of human serum"}]}
{"molecule": "B5", "values": [{"measurement": "CAA MIC", "setting": "P. aeruginosa", "value": 8000, "unit": "µg/mL"}, {"measurement": "CAA/HuS MIC", "setting": "P. aeruginosa", "value": 4000, "unit": "µg/mL"}, {"measurement": "activity in CAA supplemented with human serum (25%)", "setting": "[1]", "value": "active"}, {"measurement": "CAA MIC", "setting": "[1]", "value": 8}, {"measurement": "CAA/HuS MIC", "setting": "[1]", "value": 1}]}
{"molecule": "B6", "values": [{"measurement": "activity in CAA supplemented with human serum (25%)", "setting": "[1]", "value": "active"}, {"measurement": "CAA MIC", "setting": "[1]", "value": 8}, {"measurement": "CAA/HuS MIC", "setting": "[1]", "value": 2}]}
{"molecule": "B7", "values": [{"measurement": "CAA MIC", "setting": "P. aeruginosa", "value": 32000, "unit": "µg/mL"}, {"measurement": "CAA/HuS MIC", "setting": "P. aeruginosa", "value": 500, "unit": "µg/mL"}, {"measurement": "effect of the structural modification on activity (as assessed by MIC) versus the parent lysin", "setting": "P. aeruginosa", "value": "very strong activity in the presence of human serum"}]}
{"molecule": "B8", "values": [{"measurement": "bactericidal activity (CFU decrease of 3-Log10, 3 hours after the addition of lysin)", "setting": "[2]; 10 μg/mL, enumerated lysins in CAA/HuS, general statement for HEPES and CAA/HuS", "value": "bactericidal activity"}, {"measurement": "HEPES (Log10 CFU/mL), 1 hr", "setting": "[2]", "value": "<3.7", "unit": "Log10 CFU/mL"}, {"measurement": "HEPES (Log10 CFU/mL), 3 hr", "setting": "[2]", "value": "<3.7", "unit": "Log10 CFU/mL"}, {"measurement": "CAA/HuS (Log10 CFU/mL), 1 hr", "setting": "[2]", "value": 5.7, "unit": "Log10 CFU/mL"}, {"measurement": "CAA/HuS (Log10 CFU/mL), 3 hr", "setting": "[2]", "value": "<3.7", "unit": "Log10 CFU/mL"}, {"measurement": "activity in CAA supplemented with human serum (25%)", "setting": "[1]", "value": "active"}, {"measurement": "CAA MIC", "setting": "[1]", "value": ">128"}, {"measurement": "CAA/HuS MIC", "setting": "[1]", "value": 32}]}
{"molecule": "B9", "values": [{"measurement": "HEPES (Log10 CFU/mL), 1 hr", "setting": "[2]", "value": 5.7, "unit": "Log10 CFU/mL"}, {"measurement": "HEPES (Log10 CFU/mL), 3 hr", "setting": "[2]", "value": "<3.7", "unit": "Log10 CFU/mL"}, {"measurement": "CAA/HuS (Log10 CFU/mL), 1 hr", "setting": "[2]", "value": 6.0, "unit": "Log10 CFU/mL"}, {"measurement": "CAA/HuS (Log10 CFU/mL), 3 hr", "setting": "[2]", "value": "<3.7", "unit": "Log10 CFU/mL"}]}
